In the supplement of paper PMC12042874:
± gives the uncertainty stated by the source.

Experiment: amyloid nucleation score (Sup35N fusion, yeast selection) (log enrichment); library NNK2; higher = more nucleation; inactive = no reads after selection
Summary of the method: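 Sup35N fusions to peptides of 20 random codons were expressed in psi-negative yeast, induced 24 hours with 100 μM copper sulfate, and grown 7 days at 30°C on medium lacking adenine and uracil. Input and output plasmid inserts were sequenced by Illumina. The nucleation score is the DiMSum log enrichment of output over input reads, centred on the mode score of non-aggregating sequences. Sequences with under 100 input reads were excluded.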

Row | Substance | amyloid nucleation score
1 | RTSRVVIKILDPFQFVMLFI | -0.211 ± 0.49
2 | RTTGTLLMRAESALPGRVVN | 5.762 ± 0.055
3 | RTTWPHLVGSRILFYTSHSM | -0.392 ± 0.63
4 | RTVDELTRRWWSKRRMGMSW | 2.03 ± 0.25
5 | RTYILYSDFGCRRCDY | 3.56 ± 0.1
6 | RVDCPYSGNVLTRVGNRCWA | 0.729 ± 0.25
7 | RVGIH | 1.52 ± 0.22
8 | RVIGVWILIAWQRQV | 0.822 ± 0.66
9 | RVKYLDDCQYMLFRWCRMFT | 0.209 ± 0.29
10 | RVLISQGLMYISHTMSG | 5.337 ± 0.044
11 | RVMYGGCFHSRKRASVPYLY | -0.405 ± 0.76
12 | RVNGLKSRVSRVRIGNVS | 0.224 ± 0.23
13 | RVNSIAFI | -0.701 ± 0.56
14 | RVPFFVGAG | -0.271 ± 0.74
15 | RVRERIQIYLLLSGQDQFKM | 3.6 ± 0.14
16 | RVRGSSVSISKLNKCKVVDT | 3.33 ± 0.091
17 | RVSSYSQATKKLKHERFGDV | -0.533 ± 0.44
18 | RVTHRQDCMNVLGSRDYFER | -0.574 ± 0.39
19 | RVVCLLKGRWFALVLPDYCR | 0.479 ± 0.8
20 | RVVRGWIAYFW | 0.374 ± 0.44
21 | RWMILSFSLAWVSMSFENNM | 0.784 ± 0.18
22 | RWYSTRCTVEFINATSIVRA | -0.531 ± 1.1

Row | Substance | amyloid nucleation score
23 | RWYYTRTF | -0.504 ± 1.1
24 | RYFDDWVNSRTVKCGWDWYA | 0.641 ± 0.17
25 | RYGERIFV | 0.627 ± 0.43
26 | RYHDLGI | -0.093 ± 0.2
27 | RYIIL | 0.728 ± 0.62
28 | RYINQ | -0.481 ± 1.1
29 | RYLSTLSVLYRTTSCRA | inactive
30 | RYMCGRGHRCF | 3.04 ± 0.087
31 | RYMKAG | -0.558 ± 0.54
32 | RYNFYRLNLSRAVASDETCV | -0.854 ± 0.34
33 | RYNTYML | -1.33 ± 0.36
34 | RYPVDRLVMSKRCPALRDGG | 0.652 ± 0.23
35 | RYSFSLMGFDSKGNKVGIMS | 3.65 ± 0.06
36 | RYTLRGSGEWLVHDTLGVTD | 0.267 ± 0.5
37 | RYVGRDR | inactive
38 | RYWLLKFNCVLWEISFCRTM | 5.89 ± 0.07
39 | RYYDLTNVVRPHYPCAHGDV | 7.333 ± 0.054
40 | RYYGRPFRVLYRWSVREYYT | 4.395 ± 0.04
41 | RYYVSEPLGDFAWFFPGDHR | inactive
42 | SADDL | 0.972 ± 0.39
43 | SAFLRIINACTATFHENSAR | inactive
44 | SAFSFTSLSKYGLFSFCVVR | -0.274 ± 0.63

Row | Substance | amyloid nucleation score
45 | SAFSVSYTKSAFSARTVDIK | -0.948 ± 0.33
46 | SAGFCFNNCFVFASGDYVNR | 7.493 ± 0.047
47 | SAINIFGALAKCFMVMLALF | inactive
48 | SAIRLMGG | 5.378 ± 0.048
49 | SAPECNLAARVFYLLSPMGM | 0.13 ± 1.1
50 | SAQWGREMVISARHRVPVEL | 4.92 ± 0.079
51 | SAWQRIEWL | -0.339 ± 0.64
52 | SCAHKELCQSVLRDVYWCTL | -0.224 ± 0.79
53 | SCFPM | -1.67 ± 0.62
54 | SCGIVRERFIVFELWSVCSG | -0.147 ± 0.42
55 | SCHLLL | -0.891 ± 1.1
56 | SCHVC | 5.854 ± 0.058
57 | SCLLSL | 0.506 ± 0.45
58 | SCLSGFTIWQVSLRYCASFG | 0.312 ± 0.38
59 | SCPIRTL | 0.424 ± 0.43
60 | SCRVME | 0.292 ± 0.2
61 | SCSDMIKYHHTVELSLVSAT | 0.295 ± 1
62 | SCSTYNDSSVYWFN | 2.04 ± 0.077
63 | SCTDLLYDIDCIHSHECLLL | -0.397 ± 0.35
64 | SCTWRRGFSSQVKYMNRQSI | 0.989 ± 0.13
65 | SCYDVCPLCSHCRIGTKM | 1.92 ± 0.2
66 | SCYRIWIMILVIGFSLNRRL | -0.208 ± 0.2

Row | Substance | amyloid nucleation score
67 | SDAIKWIYL | 0.335 ± 0.29
68 | SDGLGSILIFGPPNY | -0.992 ± 0.3
69 | SDIVNMGEVLVLGDSYWREG | -0.449 ± 0.63
70 | SDLAWGERHLLEGLLVRPTT | 0.508 ± 0.29
71 | SDMYM | -0.324 ± 1.1
72 | SEFPIVQLCIAWDKLCKHLY | -0.179 ± 0.26
73 | SELRTAKPVN | 0.635 ± 0.26
74 | SEMGTVRRYCLRAYRVCVAY | 0.757 ± 0.57
75 | SENFLYLDVVFMCHSMIDRG | 0.131 ± 0.54
76 | SERFDRAY | -1.2 ± 0.42
77 | SEVCNCVGLGSGCDVYGA | 3.17 ± 0.094
78 | SEVGEGSPIDMTLARSGSVF | 0.913 ± 0.81
79 | SEYVDFYGFLGLVFTLRRSA | 0.43 ± 0.64
80 | SFAMSRHLQPGGNEQFRM | 1.16 ± 0.57
81 | SFELFCVWGR | -0.827 ± 0.54
82 | SFGMQTEMYPGSIGLV | inactive
83 | SFIWKLYMLHWNWRSTEEGE | -0.17 ± 0.65
84 | SFLKSMMAPIYKCSVWCSML | -0.819 ± 0.64
85 | SFLTYKARTMSSKLVKSIML | -0.563 ± 0.76
86 | SFMALYLSWFSQRDYAMAGS | 0.639 ± 0.46
87 | SFNEMILHLIPRSCSLKKYI | -0.441 ± 0.28
